Data published in paper PMC12638815, “Targeting ACE2 with a camelid antibody inhibits SARS-CoV-2 binding and has protective effects in vivo” (Nature Communications, 2025).

B1: endogenous ACE2 on Vero E6 cells (receptor, simian (endogenous in Vero E6))
chain: QSTIEEQAKTFLDKFNHEAEDLFYQSSLASWNYNTNITEENVQNMNNAGEKWSAFLKEQSTLAQMYPLQAIQNLTVKLQLQALQQNGSSVLSEDKSKRLNTILNTMSTIYSTGKVCNPNNPQECLLLDPGLNEIMEKSLDYNERLWAWEGWRSEVGKQLRPLYEEYVVLKNEMARANHYKDYGDYWRGDYEVNGVDGYDYNRDQLIEDVERTFEEIKPLYEHLHAYVRAKLMNAYPSYISPTGCLPAHLLGDMWGRFWTNLYSLTVPFGQKPNIDVTDAMVNQAWNAQRIFKEAEKFFVSVGLPNMTQGFWENSMLTDPGNVQKVVCHPTAWDLGKGDFRIIMCTKVTMDDFLTAHHEMGHIQYDMAYAAQPFLLRNGANEGFHEAVGEIMSLSAATPKHLKSIGLLSPDFQEDNETEINFLLKQALTIVGTLPFTYMLEKWRWMVFKGEIPKDQWMKKWWEMKREIVGVVEPVPHDETYCDPASLFHVSNDYSFIRYYTRTLYQFQFQEALCQAAKHEGPLHKCDISNSTEAGQKLLNMLKLGKSEPWTLALENVVGAKNMNVRPLLNYFEPLFTWLKDQNKNSFVGWSTDWSPYADQSIKVRISLKSALGANAYKWNDNEMYLFRSSVAYAMRQYFLENKHQTILFGEEDVRVADLKPRISFNFYVTAPKNVSDIIPRTEVEEAIRFSRSRINDAFQLNDNSLEFLGIQSTLIPPYQSPVTTWLIVFGVVMAVIVAGIVVLIFTGIRDRKKKNQARSEENPYASIDISKGENNPGFQNTDDVQTSF
notes: ACE2 endogenously expressed by the simian kidney cell line Vero E6; also called non-human ACE2 (Vero E6); source: endogenous, Vero E6 cells

Legend:
[1] = molecular target: T1, soluble human ACE2 peptidase domain (residues 19-615), untagged (Homo sapiens, UniProt Q9BYF1); experiment: BLI; VHH-His immobilised on Ni-NTA biosensors, soluble hACE2 as analyte; PBS working buffer with 300 mM NaCl, pH 7.2, 30 °C; 1:1 fit, apparent KD; details: both partners purified
T1 construct: human ACE2 peptidase domain, residues 19-615, secreted with an IgK signal peptide; Residues of the thrombin site may remain at the C-terminus after cleavage; also called sACE2; soluble hACE2; source: Expi293F cells with kifunensine, purified (Streptactin, SEC, thrombin cleavage, SEC); not shown: His8, C-terminal, cleaved; Strep, C-terminal, cleaved

[2] = molecular target: B1; experiment: flow cytometry on cells; cell lines with exogenous or endogenous ACE2 incubated with 10 µg/mL VHH, 60 min at 4 °C; anti-myc and fluorescent anti-mouse antibody; parental cells or a control VHH as negative controls; details: one partner purified
[3] = molecular target: T2, hACE2 peptidase domain fused to a human Fc from IgG (Homo sapiens, UniProt Q9BYF1); experiment: BLI; hACE2-Fc immobilised on AHC biosensors (1 µg/mL), monomeric VHHs as analytes; PBS working buffer with 300 mM NaCl, pH 7.2, 30 °C; global 1:1 fit, apparent KD; details: both partners purified
T2 construct: human angiotensin-converting enzyme 2, peptidase domain; also called hACE2-Fc; sACE2-Fc

[4] = molecular target: T3, VHH B07-Fc (VHH B07 in fusion with the human IgG1 Fc segment) (alpaca); experiment: flow cytometry on cells; cell lines with exogenous or endogenous ACE2 incubated with 0.1 µg/mL VHH-Fc, 60 min at 4 °C; fluorescent anti-human IgG antibody; details: one partner purified
T3 construct: also called dimeric VHH-Fc; source: Expi293 cells, transfected, purified from supernatant (HiTrap protein A, SEC Superdex 75); not shown: Fc (human IgG1; hinge, CH2 and CH3), C-terminal, kept

T1 sequence (Q9BYF1 19-615): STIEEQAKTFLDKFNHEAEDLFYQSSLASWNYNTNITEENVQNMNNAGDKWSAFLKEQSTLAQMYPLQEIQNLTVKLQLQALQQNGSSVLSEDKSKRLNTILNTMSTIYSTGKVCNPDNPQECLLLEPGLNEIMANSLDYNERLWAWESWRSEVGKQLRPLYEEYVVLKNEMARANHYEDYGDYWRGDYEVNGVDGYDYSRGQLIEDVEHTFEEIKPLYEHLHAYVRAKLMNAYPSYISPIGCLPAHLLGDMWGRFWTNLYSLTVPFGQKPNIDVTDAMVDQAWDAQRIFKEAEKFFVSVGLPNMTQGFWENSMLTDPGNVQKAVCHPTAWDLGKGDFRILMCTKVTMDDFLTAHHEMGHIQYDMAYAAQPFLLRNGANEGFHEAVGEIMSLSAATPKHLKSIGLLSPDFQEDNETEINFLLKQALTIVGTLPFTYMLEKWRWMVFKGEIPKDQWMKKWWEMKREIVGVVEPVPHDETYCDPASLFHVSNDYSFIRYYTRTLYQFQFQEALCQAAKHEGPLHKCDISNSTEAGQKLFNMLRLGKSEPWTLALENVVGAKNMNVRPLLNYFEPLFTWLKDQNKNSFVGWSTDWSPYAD

Binder	Kd [1] [nM]	binding result [2]	Kd [3] [nM]	binding result [4]
VHH B07 (VHH, alpaca VHH from phage display (gene IGHV3S53); Expressed from pHEN6 with c-myc and His tags at the C-terminal end; also called anti-hACE2 VHH B07; source: E. coli TG1 periplasm, purified (His pure Cobalt sepharose beads); not shown: c-myc, C-terminal, kept; His, C-terminal, kept) VHH: EVQLQASGGGLVQAGGSLRLSCAASRSTFSTNTIGWYRQAPGKQRELVASISTSGNTYYPDSVKGRFAISRDNAENTVYLQMNSLKPEDTAVYYCNTPSRRISNFWGQGTQVTVSS	1140	binds	242	
VHH B09 (VHH, No structure of B09 was solved; also called anti-hACE2 VHH B09; source: E. coli TG1 periplasm, purified (His pure Cobalt sepharose beads); not shown: c-myc, C-terminal, kept; His, C-terminal, kept) VHH: QVQLVESGGGLVQAGGSLRLSCATSRSTFSSNTIGWYRQAPGKQRELVASISTSGNTYYADSVKGRFAISRDNAENTVYLQMNSLKPEDTAVYYCNTPSRRISNFWGQGTQVTVSS	1960	binds	214	
VHH B10 (VHH, alpaca VHH from phage display (gene IGHV3-3); also called anti-hACE2 VHH B10; source: E. coli TG1 periplasm, purified (His pure Cobalt sepharose beads); not shown: c-myc, C-terminal, kept; His, C-terminal, kept) VHH: QVQLVESGGGLVQAGDSLRLSCAASGRTFSSYAMGWFRQALGKEREFVAVISGSGTSTYYTDSVKGRFTISRDNAKNTVYLQMNSLKPEDTAVYYCARAKGFSTIYNQDEGRYDYWGQGTQVTVSS	22	binds	21	
B1				binds
